± gives the uncertainty stated by the source.
Experiment: amyloid nucleation score (Sup35N fusion, yeast selection) (log enrichment); library NNK1; higher = more nucleation; inactive = no reads after selection
How it was run: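 Peptides of 20 random codons, each fused to Sup35N, were expressed in psi-negative yeast. Cells were induced with 100 μM copper sulfate for 24 hours and grown 7 days at 30°C on medium lacking adenine and uracil, and plasmid inserts before and after selection were Illumina-sequenced. Nucleation scores are DiMSum log enrichments of output over input reads, centred on the mode score of non-aggregating sequences, and sequences under 100 input reads were excluded.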

Substance | amyloid nucleation score
NVAPSQSFPSLYCSE | inactive
KFYYSLDVSSRCNFVLLEVE | 0.669 ± 0.65
RVIGPTHYLQLCNIMFCDYI | 7.206 ± 0.051
GIGFFRCCLYRMFRYTRLSH | 0.365 ± 0.23
IVQIIPGVCCA | 0.311 ± 1.2
NECSGGLQKLLNRTTNSDLW | 0.185 ± 0.33
IDSKFQPK | 0.972 ± 0.84
YAPLDDSMKLCHERGESLCM | 0.186 ± 0.83
MLSII | -1.39 ± 1.7
GSNIVSEYERLGRIMSV | -0.509 ± 1.2
PSLVQNGSQSTPVEDYIIEY | -0.618 ± 0.65
WVLYSIILCERCNHKGTSDG | 0.057 ± 0.53
SGKGMPNMNIPFHMWYQICY | 0.001 ± 0.33
THNFEGLSVWDLKDLKCCS | 5.16 ± 0.087
IRSQKRYLCSGSLLCKVSRR | 1.38 ± 0.51
IAVDTRVGASYVCGSS | -0.535 ± 0.79
NGCDIFSFGFYLLILFSLIQ | -0.196 ± 0.49
TTRSSGIFSDEGKQACSDRG | 0.091 ± 0.74
HLILGLL | -0.54 ± 0.47
ASMLFRSHQCCLIHSGADIN | 0.979 ± 0.29
FVLVMLNMQ | 4.4 ± 0.093
SCTASMASPNLEF | inactive
SHENSRSNNISSHQP | -0.513 ± 0.34
YVVFMYFAF | 5.9 ± 0.068
SFCVFLMDMSRIGPETLSEW | 4.95 ± 0.076

Substance | amyloid nucleation score
DGSGRGRALTVTIDWAVQLV | 0.26 ± 0.88
QVNDIGP | -0.341 ± 0.22
YCSQPSAWSLRLNRSCPHNM | -0.593 ± 1.1
QRIGHLVLDSVGRTSCVMGA | 0.386 ± 0.41
QVWITWVGRKLPHRGKTVGN | -0.379 ± 0.53
SYCMLNAVPVEMRLTLPGIR | 0.389 ± 0.49
RHAKRLWRV | -0.574 ± 0.78
PLLQKSWIRALSFFVNHTS | 0.126 ± 0.51
PDCLPPWSRRLLGNRVAIGL | 1.01 ± 0.57
RKNFLGIGQKLGSSSDWGG | -0.899 ± 1
SYSMQRRKCTPAFCFA | -0.36 ± 0.54
GWTLPNRRLWHFFMTIT | 0.654 ± 0.45
RLWYGRSPWELVTIRSQARG | 0.14 ± 0.31
RTSTQFPSHQYIQVVLCIS | inactive
NVYLGGLVQYFCQWLAGSIR | 0.59 ± 0.62
LIYAREDGEALWEAIRPTEK | -0.047 ± 0.48
HYVRNPARD | inactive
ITYMYGYCMDYF | 0.439 ± 0.38
HSRLLASYS | 1.34 ± 0.43
CVGVWVRFLTQQCSTHKQYE | -0.116 ± 1.2
GFTFVLLLSLGLVGWCETVK | -0.511 ± 0.68
MKYKSWTSGSGSSVSRRMKL | 0.028 ± 0.72
IYWCMM | 7.125 ± 0.057
TSDNGKNAQGWGM | 0.145 ± 1
YSVWVYRLMRYELNVTFCR | 0.093 ± 0.2

Substance | amyloid nucleation score
YEVIHICTNLEPIVRNCMGG | 7.024 ± 0.066
DTVYLLGGCCLVVRLNLFIG | 3.77 ± 0.15
VLLYHNEDHWFCSRYYSSVS | inactive
FMTEWSVTFMRMYMAYLGSV | 0.424 ± 0.29
VMLSSSGYELHVWRVGGSDG | 0.093 ± 0.75
TINDKMITRFSLLCPAVSMI | 1.21 ± 0.84
IGMALKWNFLCKSSDRFLRV | 0.296 ± 0.97
EASTYHFSCGRANVTDELGT | 0.882 ± 0.53
NTIEGV | inactive
CRYSACAKRMSSFCRVRMCL | 0.194 ± 0.66
RLNDNRYSYVVVS | -0.127 ± 0.64
LSVRDVLYGHVRWVGWGGVK | 0.886 ± 0.64
LDSAYSGGKCYTWFNIRRFV | 0.361 ± 0.86
ITMWMPRILRVTITYDTRG | 0.111 ± 1.2
KYEMRITVGRGYFSGRMHAC | 0.494 ± 0.78
QIFLWFGISNKDFLHFVSWS | 0.158 ± 0.57
SALGFFRAYQSIKRTLFRRR | -0.064 ± 0.56
MKVYHSTQEVLWGQGGLLTR | -0.116 ± 0.42
MRSWIVIMALKM | -1.34 ± 0.85
YMSWASLRKHFIFVV | -0.282 ± 1.2
KQSCWALSYVYMTSHVLSGG | 0.495 ± 1.4
QLDINN | 0.197 ± 0.52
SSDRAYVFCTRNMEVREGSK | -0.835 ± 0.72
MMRTEIARVLCLSLF | 0.077 ± 0.37
VSLRCWCWGGTHVKPQRGYV | 0.377 ± 0.77

Substance | amyloid nucleation score
ADLRVFHYRYFGS | -0.223 ± 0.49
GVWYCYLGVN | -0.431 ± 1.4
SFWWSDATMFEFVKGSRSGK | inactive
GISNSMVRHYLCTTFIYKDA | 3.51 ± 0.066
DATTTLFL | -0.281 ± 0.77
RNIVIMYRNCLVKLNLETGS | 6.77 ± 0.053
IICKVCLCVAPM | 2.81 ± 0.19
IFYFYFCRYLSIQMVILGVQ | 0.983 ± 0.33
IYCEEFMLEMTSRIRV | -0.976 ± 0.47
VPVVRYYFTQFMDKYADDMF | 1.36 ± 0.58
CLAFQLDWLRMGLFKSMEGT | -0.384 ± 0.35
GSGSYRGTRLECLCFW | 0.025 ± 1.1
VFWWT | -0.575 ± 0.29
TEINIASPYWNNSRSGSDMD | 0.238 ± 0.42
RSMDRTGSIAGRYCVKKMSS | 0.423 ± 0.3
WYASRTTSIEYTKVYKCGGP | 0.599 ± 0.43
TNILVAYRVISNGSTTPPRR | 3.56 ± 0.15
MRNYNLAWRHSSYCTIRSNA | 0.51 ± 0.84
IHTVTLNNHSSNGDCSSFNI | -0.453 ± 0.43
RNVGFLFSKRDQPWLKSPGD | -0.983 ± 2.4
MCMQKVL | -0.263 ± 1.4
TQCSFAANQF | 0.768 ± 0.39
YYKCMATQVVGLLMSVWATY | 1.06 ± 0.85
SYIPSISAALYFVLVMRHWL | -0.627 ± 0.49
GICCYNFGRCKMRASPGLCG | -0.999 ± 1.3

Substance | amyloid nucleation score
EWLLARMTISKRMMW | 0.587 ± 0.29
FKCYWAVCIELWYGCSTVGL | 0.588 ± 1.2
VACRRTSKGEYYFQSMICDL | inactive
SFNWPGFPDCFGPFRAVFIS | -0.61 ± 1.1
RSEVYFNWGLNASMEVSPLC | -0.02 ± 0.41
AQAVLQLETRTIKIYRDGPK | -1.08 ± 2.7
SMMYKVSFGGGVFVLKLLVK | 0.266 ± 0.3
SLAWSRMRCKFWSVSPSAFP | -0.352 ± 0.49
NRFFSRVKKYPYTLSYPGFC | 0.065 ± 0.29
CHWSCRSEVMPESVTDAGGW | -0.072 ± 0.67
WFRIKGTGTLTPLKQHYSIN | -0.355 ± 0.56
HRVLYIPALDNVVCRDIWRV | 1.29 ± 0.46
KLEGSARSGTTSRGSFSECV | 0.254 ± 0.38
PRRQETWANEGHGM | 0.426 ± 0.93
YCPNLYVVDGCFVLNSKLIL | 5.63 ± 0.072
SSVLATFIKLQHQGRKRKDR | -0.198 ± 0.29
PTFNSAQTRSISYIKTDYLE | inactive
NCTWITGIFS | 0.044 ± 0.35
FFWLVAK | -1.18 ± 1.2
SPRSLMKGVITTHIIG | 0.917 ± 0.4
FVADGLAPFLPMTVPLVGIK | -1.06 ± 2.4
HNFLSYFQNRNDYCASN | -0.503 ± 0.6
QGWKGSC | -0.385 ± 1.4
LRKSWVQSKHCDIRPDSKAL | 0.693 ± 0.68
IDNGDCYNDRVLADTVS | -0.577 ± 0.6

Substance | amyloid nucleation score
YWAKGNCYVAFRLKWRYNCG | 1.69 ± 0.64
VVYHVFFWELTNAKHNLPML | -1.17 ± 2.4
GLCGVILCELISNVREGKSK | 4.97 ± 0.084
CKSGDLSECCRIWHRWA | 0.048 ± 0.27
RPCIWFGTTCFYCTVFN | 5.76 ± 0.061
RLLFITYSMVSKYNKCLIRG | 0.048 ± 0.74
TQCCGS | -0.448 ± 1.7
FTGRNSNMIFLSYWVCYYQN | 6.983 ± 0.05
RLMRHNMPTVVEHAGSSRSN | -0.132 ± 0.31
LNTWVGVGGWPE | -0.135 ± 0.78
VNKGFHFLILTTIINVDYGG | 4.64 ± 0.07
YCHSVVFV | 0.352 ± 1
DSGDEGVIVSVSHGWTSEGL | 0.443 ± 0.81
NGVMESGNRRTLLRPTVVET | -0.016 ± 1.2
GMARHEMRGGMHSTLLRLTA | 0.735 ± 0.91
CFCKGGPVVTRMWEGIYPC | -0.014 ± 0.27
CNLIYCTFDYLNFWDYYTID | 6.64 ± 0.054
WNLNKYSFILALDGSYYVLN | 3.23 ± 0.24
FMIAFVFSKTRGQSIVSYSV | -0.747 ± 0.85
YASLNYLLQGRVRA | inactive
TYMTSTMQLRHTFFRSQANL | 2.7 ± 0.098
GRTYDDYGHVIYRSWLPSLH | -0.274 ± 1.4
CRSSHE | 0.109 ± 1.4
DKCCKLSRD | 0.972 ± 0.58
YSYSVAV | 0.38 ± 0.51

Substance | amyloid nucleation score
NADCLIDDFASFDHMVPG | 0.004 ± 0.51
NPGIDYNERYWMG | -1.09 ± 1.1
NDSICTYSMAWGRERSGVCY | inactive
RVRAVCVLFRTNAAFPAGTH | -1.03 ± 0.74
YTEETYKLCVWMSDRSIRLN | 0.001 ± 0.85
FQRTGQKMWNNKKCSGRQHD | -0.648 ± 0.51
VGLCYRGKWDGFLDKKVRWK | -1.73 ± 2.7
MWSIYMHVAHLGMQTRGCCR | 1.76 ± 0.22
SFVLGYSFLRKSCWFNVVTL | inactive
RALVDRLSTS | 0.472 ± 0.82
CAVHYKLCDLYHT | 0.381 ± 0.5
HRSRITLANVS | -0.666 ± 0.32
KWVWDLMMVDSGLRLSSHVL | 0.026 ± 0.35
MFFVSI | 0.41 ± 0.22
FKGQSVCFDLVGWFEVLCQG | -0.381 ± 0.85
SQTNSIISCLERFAGGLVLI | 0.349 ± 0.55
TLTVSGAADIITFGSTIVVG | 0.193 ± 1.5
PVCVIRRGMAFSAFGWVPLE | 0.188 ± 0.7
SCHIKK | 0.12 ± 0.39
IKKEIRSVFGLSGTSVKGNN | -0.118 ± 0.74

Source: the supplement of paper PMC12042874
